According to patent US20020177177A1 (PROLIFIX, published 2002):

Target: T1, E. coli-produced 6X histidine-tagged cyclin D1 (UniProt P24385 1-295, limits assumed)
T1 construct: also called His-cyclin D1; His-D1; not shown: 6X histidine tag
Test: GST pull-down on glutathione-agarose, anti-cyclin D1 Western blot
Description: To ask which domain or motif of SRC-1 is involved in cyclin D1 binding, we generated a series a GST-SRC1 deletion mutants. […] In the in vitro binding assay, the series of GST-containing proteins were incubated with bacterially expressed His-tagged cyclin D1 and immobilized on glutathione-agarose. Cyclin D1 binding was detected by Western blot analysis using anti-cyclin D1 antibody. Binding was not detected to GST alone.

T1 sequence (P24385 whole entry): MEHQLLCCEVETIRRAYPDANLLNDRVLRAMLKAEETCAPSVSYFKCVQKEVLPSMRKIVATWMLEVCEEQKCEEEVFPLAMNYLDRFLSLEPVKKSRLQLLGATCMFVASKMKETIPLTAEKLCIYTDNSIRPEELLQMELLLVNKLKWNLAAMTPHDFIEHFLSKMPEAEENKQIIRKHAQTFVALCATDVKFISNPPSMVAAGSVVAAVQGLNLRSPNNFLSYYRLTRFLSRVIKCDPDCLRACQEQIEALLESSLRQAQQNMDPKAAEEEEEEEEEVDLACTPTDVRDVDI

- binding result: no binding
B1: GST-SRC1 361-568 (other, human, UniProt Q15788 361-568, looked up)
chain: IHIIDREHSGLSPQDDTNSGMSIPRVNPSVNPSISPAHGVARSSTLPPSNSNMVSTRINRQQSSDLHSSSHSNSSNSQGSFGCSPGSQIVANVALNQGQASSQSSNPSLNLNNSPMEGTGISLAQFMSPRRQVTSGLATRPRMPNNSFPPNISTLSSPVGMTSSACNNNNRSYSNIPVTSLQGMNEGPNNSVGFSASSPVLRQMSSQN
notes: not shown: glutathione-S-transferase (GST) fusion partner
